What all share (assay): binding to purified HLA
Test [1] addresses DRB1*0802.
Test [2] has as its target DRB1*1501.
Test [3] concerns the target DRB1*1302.
Test [4] concerns the target DRB1*0701.
Test [5] addresses DRB1*0401.
Test [6] concerns the target DRB1*0101.
For test [7], the target named is DRB4*0101.
The target of test [8] is DRB1*0901.
In test [9] the target is DRB1*0404.
For test [10], the target named is DRB1*1101.
Test [11] deals with DRB5*0101.
Test [12] deals with DRB1*0301.
For test [13], the target named is DRB1*0405.
Test [14] concerns the target DRB1*0802. This is another data set of the same source.
For test [15], the target named is DRB1*1501. This is another data set of the same source.
Test [16] concerns the target DRB1*1302. The source holds these as a separate data set.
The target of test [17] is DRB1*0701. The source holds these as a separate data set.
The target in test [18] is DRB1*0401. This is another data set of the same source.
In test [19] the target is DRB1*0101. This is another data set of the same source.
The target in test [20] is DRB4*0101. This is another data set of the same source.
In test [21] the target is DRB1*0901. The source holds these as a separate data set.
Test [22] addresses DRB1*0404. This is another data set of the same source.
Test [23] deals with DRB1*1101. This is another data set of the same source.
Test [24] concerns the target DRB5*0101. This is another data set of the same source.
In test [25] the target is DRB1*0301. The source holds these as a separate data set.
The target in test [26] is DRB1*0405. The source holds these as a separate data set.

Read-outs that look alike come from different tables or passages of the source.

The values that follow come from US20160114035A1 (published 2016).

For AAAYFVAAFTLHAAA [Y4.F9.H12], the IC50 (commonly the concentration needed to halve the response being measured) amounted to 5.9 nM in test [1]; 16 nM in [2]; 2560 nM in test [3]; 78 nM in test [4]; 1 nM in [5]; 3.4 nM in test [6]. In addition, the IC50 in [7] came to 81 nM; in test [8], 13 nM; in test [9], 0.67 nM; in test [10], 17 nM; in test [11] it was 18 nM; in [12], 126 nM. In test [13], the IC50 was determined as 4.4 nM.
As for AAAYFVAANTLHAAA [Y4.N9.H12], the IC50 in test [1] is 12 nM; in test [2] it was 53 nM; in test [3], 54 nM; in test [4], 49 nM; in test [5], 3.3 nM; in test [6], 4.5 nM. The IC50 in [7] was 703 nM; in test [8] it was 21 nM; in test [9], 5.2 nM; in test [10], 14 nM; in [11] it was 16 nM; in test [12], 130 nM. Further, in [13], the IC50 was determined as 13 nM.
AAAWFVAANTLHAAA [W4.N9.H12]: the IC50 in test [1] stood at 8.6 nM; in test [2], 101 nM; in test [3], 38 nM; in test [4], 43 nM; in test [5], 2.9 nM; in [6] it was 3.8 nM. Besides, the IC50 in [7] worked out at 606 nM; in test [8], 33 nM; in test [9], 5.5 nM; in test [10] it was 16 nM; in test [11], 22 nM; in [12], 174 nM. In test [13], this molecule returned an IC50 of 21 nM.
With AAAHFVAAFTLKAEA [H4.F9.E14], the IC50 came to 19 nM in test [14]; 31 nM in test [15]; 801 nM in [16]; 49 nM in test [17]; 6.4 nM in test [18]; 6.8 nM in [19]. For the same molecule, the IC50 was found to be 526 nM in [20]; 46 nM in test [21]; 8.1 nM in test [22]; 41 nM in test [23]; 19 nM in test [24]; 855 nM in [25]. The same molecule registered an IC50 in [26] of 8.1 nM.
Consider AAAHFVAAWTLHAAA [H4.H12], for which the 50% inhibitory concentration (IC50) in test [1] is 9.3 nM; in test [2] it was 12 nM; in test [3] it was 1190 nM; in test [4], 53 nM; in [5], 2.5 nM; in test [6] it was 4.2 nM. Moreover, the IC50 amounted to 267 nM in [7]; 21 nM in test [8]; 2.5 nM in test [9]; 14 nM in test [10]; 23 nM in test [11]; 198 nM in test [12]. In [13], the 50% inhibitory concentration (IC50) came out at 12 nM.
Take AAAFFVAANTLHAAA [F4.N9.H12]: the IC50 amounted to 28 nM in [1]; 70 nM in test [2]; 64 nM in test [3]; 82 nM in test [4]; 3.8 nM in test [5]; 6.5 nM in [6]. For the same molecule, the IC50 was 876 nM in test [7]; 31 nM in test [8]; 4.1 nM in test [9]; 42 nM in test [10]; 26 nM in test [11]; 286 nM in [12]. Further, the IC50 in [13] worked out at 27 nM.
As for AAAFFVAANTLKADA [F4.N9.D14], the IC50 was 16 nM in test [1]; 103 nM in test [2]; 187 nM in [3]; 74 nM in [4]; 4 nM in test [5]; 3.4 nM in test [6]. Further, the IC50 turned out to be 5520 nM in test [7]; 18 nM in test [8]; 4.5 nM in test [9]; 46 nM in [10]; 4.4 nM in test [11]; 140 nM in test [12]. For the same molecule, the IC50 in [13] was found to be 9.5 nM.
For AAAKFVAAWTLKAAA [SEQ ID NO: 4], the IC50 came to 5.2 nM in test [1]; 9.8 nM in test [2]; 648 nM in test [3]; 49 nM in test [4]; 2.6 nM in test [5]; 3.3 nM in test [6]. Besides, the IC50 in [7] was found to be 207 nM; in test [8] it was 28 nM; in test [9], 2.9 nM; in [10], 11 nM; in test [11], 5.4 nM; in [12] it was 209 nM. This molecule had an IC50 in [13] of 25 nM.
Regarding AAANFVAAYTLHAAA [N4.Y9.H12], the IC50 was found to be 7.5 nM in test [14]; 4.2 nM in [15]; 1420 nM in [16]; 67 nM in [17]; 1.8 nM in test [18]; 2.7 nM in test [19]. Besides, the IC50 was determined as 567 nM in [20]; 25 nM in test [21]; 5.2 nM in [22]; 16 nM in test [23]; 20 nM in test [24]; 171 nM in [25]. In test [26], this molecule yielded an IC50 of 19 nM.
With AAAYFVAAWTLHAAA [Y4.H12], the IC50 in [1] amounted to 9.7 nM; in test [2], 16 nM; in [3], 1560 nM; in test [4] it was 55 nM; in test [5], 2.6 nM; in [6] it was 3.7 nM. Besides, the IC50 in [7] turned out to be 279 nM; in test [8] it was 18 nM; in test [9] it was 2.6 nM; in [10], 18 nM; in [11], 15 nM; in test [12] it was 119 nM. In [13], this molecule had an IC50 of 6.9 nM.
Turning to AAAEFVAAYTLHAAA [E4.Y9.H12], the IC50 was determined as 13 nM in [14]; 6.9 nM in test [15]; 1450 nM in test [16]; 161 nM in test [17]; 2.3 nM in test [18]; 3.9 nM in test [19]. In addition, the IC50 in test [20] came out at 448 nM; in [21], 28 nM; in [22], 3.2 nM; in test [23], 27 nM; in test [24], 52 nM; in test [25] it was 144 nM. Besides, in test [26], the IC50 turned out to be 17 nM.
For the molecule AAAEFVAAWTLHAAA [E4.H12], the IC50 in test [14] amounted to 24 nM; in test [15], 51 nM; in test [16], 1150 nM; in [17] it was 97 nM; in test [18], 3.1 nM; in test [19] it was 5.1 nM. For the same molecule, the IC50 in test [20] is 350 nM; in test [21], 44 nM; in test [22] it was 4.1 nM; in [23] it was 38 nM; in [24], 48 nM; in test [25], 134 nM. The IC50 in test [26] was found to be 27 nM.
